# Source: the nanobody polyreactivity screen of Harvey et al. (2022)
# Experiment: yeast display, Sf9 membrane polyspecificity reagent, FACS + sequencing; frameworks hold sequencing errors
# In short: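 After 36–48 hours of galactose induction, yeast (Saccharomyces cerevisiae BJ5465) displaying a synthetic nanobody library were stained at 4 °C for 1 hour with 10% biotinylated, detergent-solubilized Sf9 membrane reagent. Streptavidin microbeads enriched the stained cells before FACS sorting into low and high (top ~1%) gates on anti-HA and streptavidin fluorescence. Each clone's polyreactivity label reflects its gate of origin.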
row,Sequence,polyreactivity (PSR sort gate)
1,QVQLVESGGGLVQAGGSLRLSCAASGSIFPAYTMGWYRQAPGKERELVAAIPYSGARSTYYADSVKGRVTNSRDNAKNTVYLQMNSLKPEDTAVYYCNARDRARYFYDMDYWGQGTQVTVSS,low polyreactivity
2,QVQLVESGGGLVQAGGSLRLSCAASGSTFTSYAMGWYRQAPGKERELVAAISWRGGSTYYADSVKGRFTISRDNAKNTVYLQMNSLKPEDTAVYYCNAVVRQPHDLDYWGQGTQVTVSS,high polyreactivity
3,QVQLVESGGGLVQAGGSLRLSCAASGSTFKEYTMGWYRQAPAKERELVAASSKSGDSTYYADSVKGRFTISRDNAKNTVYLQMNSLKPEDTAVYYCNKPTWYTIYDYWGQGTQVTVSS,low polyreactivity
4,QVQLVESGAGLVQAGGSLRLSCAASGIIFTDYAMGWYRQAPGKERELVAANSSGGGSTYYADSVKGRFTISRDNAKNSVYLQLNSLKPDDTAVYDCAAQSSGSYGFDHWGQGTQVTVSS,high polyreactivity
5,QVQLVESGGRIVQAGGSLRLSCAASGSILNNYAMGWYRQAPGKERELVAAISSSGGTNYADSVKGRFTISRDNEKNTVFLQMNSLKPEDTAVYYCNADVLDGGYDYWGQGTQVTVSS,low polyreactivity
6,QVQLVESGGGLVQAGGSLRLSCAASGIIFSYNVMGWYRQAPGKEREFVADITWNGGSTYYADSVKGRFTISRDNAKNTVYLQMNSLKPEDTAVYYCATGWPWYSNYASAYDYWGQGTQVTVSS,low polyreactivity
7,QVQLVESGGGLVQAGGSLRLSCAASGSIFPVYAMGWYRQAPGKEREFVARIRFSGGRTYYADSVKGRFTISRDNAKNTVYLQMNSLKPEDTAVYYCAKAQYRGRYGYWGQGTQVTVSS,high polyreactivity
8,QVQLVESGGGLVQAGGSLRLSCAASGSTLSQNAMGWYRQAPGKEREFVADISGSGDSTYYADSVKGRFTISRDNAKNTVYLQMNSLKPEDTAVYYCATPSPHVGLKWEYDYWGQVTQVTVSS,low polyreactivity
9,QVQLVESGGGLVQAGGSLRLSCAASGFIFTSYAMGWYRQAPGKERELVATISSSGGSTTYADSVKGRFTISRDNAKNTVYLQMNSLKPEDTAVYYCAAAVYVVRYVSLYRRYYWGQGTQVTVSS,high polyreactivity
10,QVQLVESGGGLVQAGGSLRLSCAASGLTFIVYAMAWYRQAPGKERELVADITWSGGSTYYADSVKGRFTISRDNAKNTVYLQMNSLKPEDTAVYYCNRQSAKIMDYWGQGTQVTVSS,low polyreactivity
11,QVQLVESGGGLVQAGGSLRLSSAASGSIFYYYAMGWYRQAPGKARELVATINISDGSTYYAVSVKGRFTISRDNAKNTVYLQMNSLKPEDTAVYYCAAYYYFQDYDYWGQGTQVTVSS,low polyreactivity
12,QVQLVESGGGLVQAGGSLRLSCAASGSIFDWYAMGWYRQAPGKEGELVAAISSGDSTYYADSVKGRFTISRDNAKKTVYLQMNSLKPEDTAVYYCAAVTKLSGIRYNYWGQGTQVTVSS,low polyreactivity
13,QVQLVESGGGLVHAGGSLRLSCAASGYIFTRNMGWYRQAPGKERELVAAITWSGGSTYYADSVKGRFTISRDNAKNTVYLQINSLKPEDTAVYYCAADYGWSVGRRYYYWGQGTQVTVSS,high polyreactivity
14,QGQLVESGGGLVQARGSLRLSCAASGRIFMTYAMAWYIQAPGKERELVAAIRSPSGTTYYADSVKGRFTISRDNAKNTVYLQMNSLKPEDTAVYYCAAGGKYSSYYWGQGTQVTVSS,high polyreactivity
15,QVQLVESGGGLVQAGGSLRLSCAASGITFYGNAMGWYRQAPGKERELVAAISSSGGTTYYADSVKGRFTISRDNAKNTVYLQMNSLKPEDTAVYYCNALHPVVYYGTYFNLRRYDYWGQGTQVTVSS,low polyreactivity
16,QVQLVESGGGLVQAGGSLRLSCAASGRIFRRYAMGWYRQAPGKERELVAAISSRGGRTYYADSVKGRFTISRDNAKNTVYLQMNSLKPEETAVYYCNARSFRWCRWLRLPFNYWGQGTQVTVSS,high polyreactivity
17,QVQLVESGGGLVQAGGSLRLSCAASGITFVANAMGWYRQAPGKERELVAGITQTGGSTYYADSVKGRFTISRDNAKNTVYLQMNSLKPEDTAVYYCAATYRRLRYGKLYYYWGQGTQVTVSS,high polyreactivity
18,QVQLVESGGGLVHAGGSLRLSCSASGYTFAYNAMGWYRQAPGKERELVAAITSRAGSTHYADSVKGRFTISRDNAKNTVYLQMNSLKPEDTAVYYCAAKRYNRLRSYRYSDREDYWGQGTQVSVSS,high polyreactivity
19,QVQLVESGGGLVQAGGSLRLTCAASGRISRYYAMGWYRQAPGKERELVATITFSGGSTYYADSVKGRFTISRDNAKNTVYLQMNSLKPEDTAVYYCAKQRGGAYLVPWYGYWGQGTQVTVSS,high polyreactivity
20,QVQLVESGGGLVQAGGSLRLSCAASGSIFGSYAMGWYRQAPGKERELVADISRRGSSTYYADSVKGRFTISRDNAKNTVYLQMNSLKPEDTAVYYCNKVFARSLSSRYQAYDYWGQGTQVNVSS,high polyreactivity
21,QVQLVESGGRLVQAGGSLRLTCAASGNIFANNAMGWYRQAPGTERELVAAISQSGGNTYYEDSVKGRFTISRDNAKNTVYLQMNSLKPEDTAVYYCNAKTYGYNYDSWGQGTQVTVSS,low polyreactivity
22,QVQLVESGGGLVQAGGSLRLSCAASGITFGIYAMGWYRQAPGKERELVAAIDGSDGSTYYADSVKGRFTISRDNAKNTVYLQMKSLKPEDTAVYYCNAENGYSWDVFSDYWGQGTQVTVSS,low polyreactivity

row,Sequence,polyreactivity (PSR sort gate)
1,QVQLVESGGGLVQAGCSLRLSCAASGYNLFAYAMGWYRQSPGKERELVATINTSGGITYYADSVNGRFTISRDIANNTVYLQMNSLKPEDTAVYYCAAADGGGLVTYYYWGQGTQVTVSS,low polyreactivity
2,QVQLVESGGGLVQAGGSLRLSCAASGFISGYYTMRWYRQAPGKERELVAVINSGGSTYYADSVKGRFTISRDNAKNTVYFQMNSLKPEDTAVYYCAKLGGKYSRYYYWGHGTQVTVSS,low polyreactivity
3,QVQLVESGGGLVQAGGSLRLSCAASGSIYHVYALGWYRQAPGKERELVATISSGGSTYYADSVKGRFTISRDNEKNTVYLQMNSLKPEDTAVYYCNADWFLYGGWYGYGYWGQGTQVTVSS,low polyreactivity
4,QVQLVESGGGLVQAGGSLRLSCAASGSTLDEYAMGWYRQAPGKEREFVAAISWSDGSTYADSVKGRFTISRDNAKNTVYLQMNSLKPEDTAVYYCNAYAYVSLYYSGEYWGQGTQVTVSS,low polyreactivity
5,QVQLVESGGGLVQAGGSLRLSCAATGFIFPYYAMGLYRQAPGKEREMVAAITFSATRTYYADSVKGRFTISRDNAKNTVYLQMNSLKPEDTAVYYCNARGGVYGSYFEFNYWGQGTQVTVSS,low polyreactivity
6,QVQLVESGGGLVQAGGSLRVSCAASGSTFPYYTMGWYRQAPGKERELVDVMTIRGGSTYYAHSVNGRCTHSRDNAKNTVNLQMNSLKPEDTAVNYCAPTGQLQGWYDMYYWGQGTQVTVSS,low polyreactivity
7,QVQLVESGGGLVQAGGSLRLSCAASGSIFYNNVMGWYRQAPGKERELVAVISGGGSTNYADSVKGRFTISRDNAKNNVYLHMNSLKREDTAVYYCAARGRYSYGDRYEYWGQATQVTVSS,low polyreactivity
8,QVQLVESGGGLVQAGGSLRLSCAASGIIFYSYAMGWYRQAPGKERELVAAISNNGGSTYADSVKGRFTISRDNAKNTVYLQMNSLKPEDTAVYYCAADPTGGVGFDGYYWGQGTQVTVSS,low polyreactivity
9,QVQLVESGGGLVQAGGSLRLSCAASGSTFSSYAMGWYRQAPGKERELVARITSGDSTYYADSVKGRFTISRDNAKNTVYLQMNSLKPEDTAVYYCNAVAYGRTYDYWGQGTQVTVSS,high polyreactivity
10,QVQLVESGGGLVQAGGSLRLSCAASGSTFYSYAMGWYRQAPGKERELVAAITKGGGSTYYADSVKGRFTISRDNAKNTVYLQMNSLKPEDTAVYYCAAPGLYWYYTRSGYDYWGQGTQVTVSS,high polyreactivity
11,QVQLVESGGGLDQAGGSLRLSCAASGSIFGTNTMGWYRQSPGKERELVAAIRLSDSSTYYADSVKGRFTISRDNAKNTVYLQMNSLKPEDTAVYYCAVDYRAYHYYRYDYWGQGTQVTVSS,low polyreactivity
12,QVQHVESGGGLVQAGGSLRLSCAASGSIFIPNAMGWYRQAPGKERELVAAITSGGRTYYADSVKGRFTISRDNAKNTVYLQMNSLKPEDTAVYYCAARSGYRYVESEYWGQGTQVTVSS,high polyreactivity
13,QVQLVESGGGLVQAGGSLRLSCAASGFTFSGHTMGWSRQAPGKERELVATISRTGGITYYADSVKGRFTISRDNAKNTVLLQMNSLKPEDTAVYYCNRRYYYFVYPDDYWGQGTQVTVSS,high polyreactivity
14,QVQLVESGGGLVQAGGSLSLSCAASGSTFVPYAMGWYRQAPGKERELVAAISSTGGSTYYADSVKGRFTISRDNAKNTVYLQMNSLKAEDTAVYYCNALAKIRYGQINKGYYWGQGTQVTVSS,high polyreactivity
15,QVQLVESGGGLVQAGGSLRLICAASGRIFCNYAMGWSRQAPGKERELVAAISSGGNTYYADSVKGRFTISRDNAKNTVYLQMNSLKPEDSAVYYCNEVYVGWQYGYDYWGQGTQVTVSS,low polyreactivity
16,QVQLVESGGGLVKAGGSLRLSCAASGFTYSTYAMGWYRQAPGKEREFVAAISRSGGSTYYADSVKGRFTISRDNAKNTVYLQMNSLKPEDTAVYYCAVRPYRSAGGSVTRGAYYYWGQGTQVTVSS,high polyreactivity
17,QVQLVESGGGLVQAGGSLRLTCAASGGILGYYAMGWYRQEQGKERELVAAISSSVGRTYYADSVKGRFTISRDNAKNSVFLQMNSLKPEDTAVYYCNKDIGRSYNYWGQGTQVTVSS,high polyreactivity
18,QVQLVESGGGLVQAGGSLRLSCAASGFTFSNYTMGWYRQAPGKERELVAAIRSSGGRTYYADSVKGRFTISRDNAKNTVYLQMDSLKPEDTAVYYCNAEYRTDGGYWVQGTQVTVSS,low polyreactivity
19,QVQLVESGGGLDQAGGRLRLSCAASGSTFSYYAKSWYIQAPGKERELVARITWRGGSTNYADSVKGRFTISRDNAKNTVYLQMNSLKPEDTAVYYCATKLTSRVPFDYWGQGTQVTVSS,high polyreactivity
20,QVQLVESGGGLVQAGGSLRLSCAASGRTFRSYVMGWYRQAPGKERELVAAITRSGGSTYYADSVKGRFTISRDNAKNTVYLQMNSLKPEDTAVYYCATDRWYYYPDYYPYGEYDYWGQGTQVTVSS,low polyreactivity
21,QVQLVESGGGLVQAGGSLRLSCAASGRIFQAYAMGWYRQAPGKERELVAAISRSGGGTYYADSVKGRFTISRDNAKNTVYLQMNSLKPEDTAVYYCNARGSTARGRGYWGQGTQVTVSS,high polyreactivity
